Measured values from patent publication US20210230599, “STEM-LOOP COMPOSITIONS AND METHODS FOR INHIBITING INTERLEUKIN-8” (VITRISA THERAPEUTICS, INC., published 2021).

Key:
Test in all cases: competition; competition TR-FRET
Details in all cases: tags: C-terminal 6xHis (Sino Biological)
[1] = target: T1, Interleukin-8 (IL8, CXCL8), C-terminal His-tagged (Homo sapiens, UniProt P10145 SEQ:1-72)
Experimental: (§1) Activity of each of these variants were tested using a time resolved competition TR-FRET assay in which the labeled parent Aptamer 3 was competed with increasing concentrations of unlabeled variants for binding to IL8 (FIG. 14). Briefly, 2-fold dilutions of thermally equilibrated aptamers were made in TR-FRET Buffer (50 mM MOPS, pH 7.4, 125 mM NaCl, 5 mM KCl, 50 μM CHAPS, 0.1 mg/mL BSA, 1 mM CaCl₂, and 1 mM MgCl₂). 5 μL of aptamer or control solution was added to 5 μl mix of 10 nM C-terminal His-tagged-IL8, 60 nM ALEXA FLUOR® 647-labeled Aptamer, and 5 nM anti-His-Eu (Perkin Elmer) in a black wall low volume 384 well plate (Greiner). For control, 5 μl of 1000-fold excess of unlabeled parent aptamer or 5 μl TR-FRET buffer alone was added to the mix of ALEXA FLUOR® 647-labeled aptamer, His-IL8, and anti-His-Eu. The plate was covered with a plate seal and subsequently incubated in the dark for 1 hour at room temperature. The plate was read on a Biotek CYTATION™ 5 plate reader. Samples were excited at 330 nm and fluorescent values were collected at 665 nm. Data analysis was performed by subtracting the background value and plotting as percent inhibition, normalized to baseline in the absence of competitor. The values were fit by [Inhibitor] vs. response—Variable slope (four parameters) using GraphPad Prism Version 7.0 and then normalized to aptamer control to obtain an IC₅₀ relative to parent aptamer. Data is presented as log values of relative IC₅₀.
To better understand the sequence requirements and confirm the stem structures of members of the Aptamer 8 family as determined from sequence covariation analysis from both the primary and secondary (degenerate) selections, a series of variants which included mutations and deletions to the predicted stems (Tables 45 and 46) were synthesized and screened. Activity of each of these variants was tested using a competition TR-FRET assay in which the labeled parent Aptamer 8 was competed with increasing concentration of unlabeled variants for binding to IL8 as described in Example 11.

[2] = target: T1, Interleukin-8 (IL8, CXCL8), C-terminal …; remark: listed apart in the source
Experimental: as §1, with “To better understand the sequence requirements and to confirm the stem structures of members of the Aptamer 3 family as determined from sequence covariation analysis from both the primary and secondary (degenerate) selections, a series of variants which included mutations and deletions to the predicted stems were synthesized and screened (Table 24). Activity” for “Activity”
To test the effects of variation in this region on aptamer function, aptamer clones from Round 5 of the degenerate selection which had mutations in loop L3 were synthesized (Table 26). All of the compounds were tested in the competition TR-FRET assay.

[3] = target: T1, Interleukin-8 (IL8, CXCL8), C-terminal …; remark: listed apart in the source
Experimental: as §1, with “To better understand the sequence requirements and to confirm the stem structures of members of the Aptamer 3 family as determined from sequence covariation analysis from both the primary and secondary (degenerate) selections, a series of variants which included mutations and deletions to the predicted stems were synthesized and screened (Table 24). Activity” for “Activity”

B1: Aptamer 115 (ssRNA)
RNA: CGGUGGGAAAUGCGAGAUGGGUUGCCG
modifications: 2'-F G, 2'-OMe A/C/U, 5' C6NH2, 3' idT
B1 showed a binding signal [1] of over 10 fold worse than Aptamer 8.

B2: Aptamer 215 (ssRNA)
RNA: CGGUGGGAAAUGUGAGAUGGGAUGCCG
modifications: 2'-F G, 2'-OMe A/C/U, 5' C6NH2, 3' idT
Work on B2 yielded a binding signal [1] of over 10 fold worse than Aptamer 8.

B3: Aptamer 218 (ssRNA)
RNA: CGAUGGGAAAUGUGAGAUGGGUUGUCG
modifications: 2'-F G, 2'-OMe A/C/U, 5' C6NH2, 3' idT
B3: binds [1].

B4: Aptamer 113 (ssRNA)
RNA: CGGUGGGAAAUAUGAGAUGGGUUGCCG
modifications: 2'-F G, 2'-OMe A/C/U, 5' C6NH2, 3' idT
Binder B4 has a binding signal [1] of over 10 fold worse than Aptamer 8.

B5: Aptamer 106 (ssRNA)
RNA: UGAUGACGAUAGAUUUCGGGUAGUGUGAUCGCAUCU
modifications: 2'-F G, 2'-OMe A/C/U, 5' C6NH2, 3' idT
B5: binds [2].

B6: Aptamer 114 (ssRNA)
RNA: CGGUGGGAAAUUUGAGAUGGGUUGCCG
modifications: 2'-F G, 2'-OMe A/C/U, 5' C6NH2, 3' idT
Work on B6 yielded a binding signal [1] of over 10 fold worse than Aptamer 8.

B7: Aptamer 208 (ssRNA)
RNA: UGCCGACGGUAGAUUACGGGUAGAGUGACCGCGGCU
modifications: 2'-F G, 2'-OMe A/C/U, 5' C6NH2, 3' idT
B7: binds [3].

B8: Aptamer 210 (ssRNA)
RNA: UGGCGACGGUAGAUUACGGGUAGAGUGACCGCGCCU
modifications: 2'-F G, 2'-OMe A/C/U, 5' C6NH2, 3' idT
B8: binds [3].

B9: Aptamer 32 (ssRNA)
RNA: CGGUGGGAAAUGUGAGAUGGGUUGCCG
modifications: 2'-F G, 2'-OMe A/C/U, 5' C6NH2, 3' idT
B9: binds ([1]; stem-loop).

B10: Aptamer 216 (ssRNA)
RNA: CUGUGGGAAAUGUGAGAUGGGUUGCAG
modifications: 2'-F G, 2'-OMe A/C/U, 5' C6NH2, 3' idT
B10: binds [1].

B11: Aptamer 155 (ssRNA)
RNA: CGGUGGGAACCGUGAGAUGGGGUGCCG
modifications: 2'-F G, 2'-OMe A/C/U, 5' C6NH2, 3' idT
B11 showed a binding signal [1] of over 10 fold worse than Aptamer 8.

B12: Aptamer 117 (ssRNA)
RNA: CGGUGGGAAACGCGAGAUGGGUUGCCG
modifications: 2'-F G, 2'-OMe A/C/U, 5' C6NH2, 3' idT
With B12 the binding signal [1] was over 10 fold worse than Aptamer 8.

B13: Aptamer 119 (ssRNA)
RNA: CGGUGGGAAACCUGAGAUGGGUUGCCG
modifications: 2'-F G, 2'-OMe A/C/U, 5' C6NH2, 3' idT
With B13 the binding signal [1] was over 10 fold worse than Aptamer 8.

B14: Aptamer 118 (ssRNA)
RNA: CGGUGGGACACGCGAGAUGGGUGGCCG
modifications: 2'-F G, 2'-OMe A/C/U, 5' C6NH2, 3' idT
B14 showed a binding signal [1] of over 10 fold worse than Aptamer 8.

B15: Aptamer 38 (ssRNA)
RNA: GAUGACGGUAGAUUACGGGUAGAGUGACCGCAUC
modifications: 2'-F G, 2'-OMe A/C/U, 5' C6NH2, 3' idT
B15: binds ([3]; stem-loop).

B16: Aptamer 92 (ssRNA)
RNA: GGCGACGGUAGAUUACGGGUAGAGUGACCGCGCC
modifications: 2'-F G, 2'-OMe A/C/U, 5' C6NH2, 3' idT
B16: binds ([3]; stem-loop).

B17: Aptamer 121 (ssRNA)
RNA: CGGUGGGACACCCGAGAUGGGUGGCCG
modifications: 2'-F G, 2'-OMe A/C/U, 5' C6NH2, 3' idT
Work on B17 yielded a binding signal [1] of over 10 fold worse than Aptamer 8.

B18: Aptamer 112 (ssRNA)
RNA: CGGUGGGAAAUCUGAGAUGGGUUGCCG
modifications: 2'-F G, 2'-OMe A/C/U, 5' C6NH2, 3' idT
Binder B18 has a binding signal [1] of over 10 fold worse than Aptamer 8.

B19: Aptamer 154 (ssRNA)
RNA: CGGUGGGAACUGUGAGAUGGGGUGCCG
modifications: 2'-F G, 2'-OMe A/C/U, 5' C6NH2, 3' idT
With B19 the binding signal [1] was over 10 fold worse than Aptamer 8.

B20: Aptamer 120 (ssRNA)
RNA: CGGUGGGAAACCCGAGAUGGGUUGCCG
modifications: 2'-F G, 2'-OMe A/C/U, 5' C6NH2, 3' idT
For B20, the binding signal [1] was over 10 fold worse than Aptamer 8.

B21: Aptamer 183 (ssRNA)
RNA: UCAUGACGGUAGAUUACGGGUAGAGUGACCGCAUGU
modifications: 2'-F G, 2'-OMe A/C/U, 5' C6NH2, 3' idT
B21: binds [3].

B22: Aptamer 187 (ssRNA)
RNA: UCUUGACGGUAGAUUACGGGUAGAGUGACCGCAUCU
modifications: 2'-F G, 2'-OMe A/C/U, 5' C6NH2, 3' idT
B22: binds [3].

B23: Aptamer 95 (ssRNA)
RNA: UGAUGACGGUAGAUUCCGGGUAGUGUGACCGCAUCU
modifications: 2'-F G, 2'-OMe A/C/U, 5' C6NH2, 3' idT
B23: binds [2].

B24: Aptamer 101 (ssRNA)
RNA: UCAUGACGGUAGAUUUCGGGUAGUGUGACCGCAUGU
modifications: 2'-F G, 2'-OMe A/C/U, 5' C6NH2, 3' idT
B24: binds [2].

B25: Aptamer 209 (ssRNA)
RNA: UGCUGACGGUAGAUUACGGGUAGAGUGACCGCAGCU
modifications: 2'-F G, 2'-OMe A/C/U, 5' C6NH2, 3' idT
B25: binds [3].

B26: Aptamer 103 (ssRNA)
RNA: UGAUGACGGUAGAUUACGGGAAGAGUGACCGCAUCU
modifications: 2'-F G, 2'-OMe A/C/U, 5' C6NH2, 3' idT
B26: binds [2].

B27: Aptamer 186 (ssRNA)
RNA: UGAUGACGAUAGAUUACGGGUAGAGUGAUCGCAUCU
modifications: 2'-F G, 2'-OMe A/C/U, 5' C6NH2, 3' idT
B27: binds [3].

B28: Aptamer 108 (ssRNA)
RNA: UGAUGACGGUAGAUAACGGGUAGAGUGACCGCAUCU
modifications: 2'-F G, 2'-OMe A/C/U, 5' C6NH2, 3' idT
B28: binds [2].

B29: Aptamer 185 (ssRNA)
RNA: UGAUGACAGUAGAUUACGGGUAGAGUGACUGCAUCU
modifications: 2'-F G, 2'-OMe A/C/U, 5' C6NH2, 3' idT
B29: binds [3].

B30: Aptamer 109 (ssRNA)
RNA: UGAUGACGGUAGAUAACGGGUAGUGUGACCGCAUCU
modifications: 2'-F G, 2'-OMe A/C/U, 5' C6NH2, 3' idT
B30: binds [2].

B31: Aptamer 102 (ssRNA)
RNA: UCAUGACGGUAGAUUACGGGUAGAGUGACCGCAUGU
modifications: 2'-F G, 2'-OMe A/C/U, 5' C6NH2, 3' idT
B31: binds [2].

B32: Aptamer 184 (ssRNA)
RNA: UGAUCACGGUAGAUUACGGGUAGAGUGACCGGAUCU
modifications: 2'-F G, 2'-OMe A/C/U, 5' C6NH2, 3' idT
B32: binds [3].

B33: Aptamer 111 (ssRNA)
RNA: UGAUGACGGUAGAUUAUGGGUAGUGUGACCGCAUCU
modifications: 2'-F G, 2'-OMe A/C/U, 5' C6NH2, 3' idT
B33: binds [2].

B34: Aptamer 105 (ssRNA)
RNA: UGAUGACGGUAGAUUACGGGUUGUGUGACCGCAUCU
modifications: 2'-F G, 2'-OMe A/C/U, 5' C6NH2, 3' idT
B34: binds [2].

B35: Aptamer 104 (ssRNA)
RNA: UGAUGACGGUAGAUUAAGGGUAGUGUGACCGCAUCU
modifications: 2'-F G, 2'-OMe A/C/U, 5' C6NH2, 3' idT
B35: binds [2].

B36: Aptamer 98 (ssRNA)
RNA: UGAUGACGGUAGAUUACGGGAAGUGUGACCGCAUCU
modifications: 2'-F G, 2'-OMe A/C/U, 5' C6NH2, 3' idT
B36: binds [2].

B37: Aptamer 96 (ssRNA)
RNA: UGAUGACGGUAGAUUACGGGCAGUGUGACCGCAUCU
modifications: 2'-F G, 2'-OMe A/C/U, 5' C6NH2, 3' idT
B37: binds [2].

B38: Aptamer 97 (ssRNA)
RNA: UGAUGACGGUAGAUUACGGGGAGUGUGACCGCAUCU
modifications: 2'-F G, 2'-OMe A/C/U, 5' C6NH2, 3' idT
B38: binds [2].

B39: Aptamer 100 (ssRNA)
RNA: UGAUGACGGUAGAUUAUGGGAAGUGUGACCGCAUCU
modifications: 2'-F G, 2'-OMe A/C/U, 5' C6NH2, 3' idT
In the case of B39, the binding signal [2] is reported as > 10 fold better than Aptamer 3.

B40: Aptamer 110 (ssRNA)
RNA: UGAUGACGGUAGAUUUCGGGAAGUGUGACCGCAUCU
modifications: 2'-F G, 2'-OMe A/C/U, 5' C6NH2, 3' idT
B40: binds [2].

B41: Aptamer 217 (ssRNA)
RNA: CGCUGGGAAAUGUGAGAUGGGUUGGCG
modifications: 2'-F G, 2'-OMe A/C/U, 5' C6NH2, 3' idT
B41: binds [1].
